Experimental data as given in paper PMC10639050, “ZNF432 stimulates PARylation and inhibits DNA resection to balance PARPi sensitivity and resistance”.

Tests used:
[1] = target: ZNF432 full-length (Homo sapiens, UniProt O94892 1-652); assay: EMSA; no fixation, 1 mM CaCl2; 100 nM DNA stated, protein 1-6 nM; 25 mM MOPS pH 7.0, 60 mM KCl, 0.2% Tween, 2 mM DTT, CaCl2 (40 nM as printed with glutaraldehyde fixation; 1 mM without fixation for Kd), 37 C 30 min; 8% TBE acr; details: protein: recombinant; tags: C-terminal 10xHis (GST removed with PreScission); label: 32P (gamma-32P); single strand
ZNF432 full-length, sequence (O94892 whole entry, the tested form may be a part): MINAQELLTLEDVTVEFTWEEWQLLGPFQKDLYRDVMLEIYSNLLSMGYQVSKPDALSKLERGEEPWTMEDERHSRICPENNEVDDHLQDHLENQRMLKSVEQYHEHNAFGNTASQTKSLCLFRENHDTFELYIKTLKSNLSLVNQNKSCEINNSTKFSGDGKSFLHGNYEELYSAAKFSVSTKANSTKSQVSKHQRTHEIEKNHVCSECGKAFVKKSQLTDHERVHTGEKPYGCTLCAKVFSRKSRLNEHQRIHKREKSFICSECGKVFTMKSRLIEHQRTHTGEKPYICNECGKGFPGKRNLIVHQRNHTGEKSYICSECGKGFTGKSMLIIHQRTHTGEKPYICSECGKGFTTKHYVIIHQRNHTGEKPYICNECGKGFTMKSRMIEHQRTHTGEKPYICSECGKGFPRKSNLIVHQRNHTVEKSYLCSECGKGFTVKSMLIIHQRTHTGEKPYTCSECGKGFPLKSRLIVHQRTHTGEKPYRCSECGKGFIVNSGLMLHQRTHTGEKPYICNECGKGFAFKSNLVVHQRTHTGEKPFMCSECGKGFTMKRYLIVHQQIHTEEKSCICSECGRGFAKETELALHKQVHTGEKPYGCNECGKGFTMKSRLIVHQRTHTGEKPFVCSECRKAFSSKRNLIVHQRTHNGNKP

[2] = target: ZNF432 KRAB domain (Homo sapiens, UniProt O94892 1-205); assay: EMSA; negligible binding; 1-6 nM protein, no fixation; 25 mM MOPS pH 7.0, 60 mM KCl, 0.2% Tween, 2 mM DTT, CaCl2 (40 nM as printed with glutaraldehyde fixation; 1 mM without fixation for Kd), 37 C 30 min; 8% TBE acr; details: protein: recombinant; tags: His (GST removed with PreScission); label: 32P (gamma-32P); single strand
ZNF432 KRAB domain, sequence (O94892 1-205): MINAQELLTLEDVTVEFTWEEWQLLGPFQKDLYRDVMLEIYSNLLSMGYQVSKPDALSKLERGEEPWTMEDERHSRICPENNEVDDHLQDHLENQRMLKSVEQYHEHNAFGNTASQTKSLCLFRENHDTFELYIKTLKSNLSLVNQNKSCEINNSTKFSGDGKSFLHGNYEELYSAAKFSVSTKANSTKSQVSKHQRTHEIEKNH

B1: Single-stranded DNA (ssDNA)
DNA: GGGCGAATTGGGCCCGACGTCGCATGCTCCTCTAGACTCGAGGAATTCGGTACCCCGGGTTCGAAATCGATAAGCTTACAGTCTCCATTTAAAGGACAAG
In the case of B1, the Kd [1] is reported as 5.41 nM and the binding result [2] is reported as “no binding”.
